Drawing on PMC7491321, this text covers Kd for 3 substances.

In general, Kd refers to the constant that tells how readily two partners part at equilibrium.

For this data set, the system named is FopA (Salmonella enterica serovar Typhimurium SL1344 (plasmid pCol1B9)). Put plainly: EMSA. For orientation: A gel shift assay detects complexes by their altered migration in electrophoresis.
In turn, Inc RNA showed a Kd of 1000 nM. Take Inc-repZ complex: the Kd came to 1000 nM. For repZ 5'UTR fragment the value was 1000 nM.
